Measured values: patent publication US20240091318A1, “COMBINATION THERAPY COMPRISING LONG ACTING GLP-1/GLUCAGON AND NPY2 RECEPTOR AGONISTS” (Boehringer Ingelheim International GmbH, priority 2022, published 2024)
Numbered stars: 1 amine (or outer) side, 2 acyl side, 3 side chain; on linkers, the order of the positions; unused ones are H or OH. Side chains are listed from the residue outwards. * marks the point of attachment. C18 diacid = O=C(O)CCCCCCCCCCCCCCCCC(=O)*; γGlu = O=C(O)[C@H](CCC(=O)[*:2])N[*:1]; Isovaleryl = CC(C)CC(=O)*; AEEA = NCCOCCOCC(=O)O; Ahx = NCCCCCC(=O)O

T1: human NPY2 receptor (human, UniProt P49146)
T1 sequence: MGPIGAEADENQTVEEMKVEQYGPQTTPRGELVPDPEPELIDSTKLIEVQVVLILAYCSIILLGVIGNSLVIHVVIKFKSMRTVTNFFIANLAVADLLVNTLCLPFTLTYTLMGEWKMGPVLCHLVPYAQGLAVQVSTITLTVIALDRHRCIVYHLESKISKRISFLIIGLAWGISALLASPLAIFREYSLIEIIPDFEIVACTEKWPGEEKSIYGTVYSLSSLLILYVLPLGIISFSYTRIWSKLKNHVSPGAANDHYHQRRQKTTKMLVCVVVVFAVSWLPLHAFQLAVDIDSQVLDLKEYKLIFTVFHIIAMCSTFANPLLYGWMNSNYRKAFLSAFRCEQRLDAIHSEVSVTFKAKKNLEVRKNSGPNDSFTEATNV


Target: T1, human NPY2 receptor
Assay: radioligand binding competition (125I-PYY(1-36)) on human NPY2R membranes, filtration
Method: The filtration RLB assay was carried out in 96-well plates in a final volume of 100 μl per well. Freeze-dried test peptides were dissolved in 100% dimethyl sulfoxide (DMSO) to stock solutions of 1 mM and serial dilutions were performed in assay buffer (50 mM HEPES, 5 mM MgCl₂, 1 mM CaCl₂, pH 7.4) containing 0.2% ovalbumin. […] Subsequently, 10 μl of human ¹²⁵I-PYY(1-36) (Perkin Elmer) in assay buffer containing 0.2% ovalbumin was added to wells to give a final concentration of 0.02 nM. Next, 80 μL membranes (HTS066M, ChemiSCREEN™ Human Neuropeptide Y2 Receptor Membrane Preparation, CHEMICON) were added to each well to give a final protein concentration of 0.5 μg/well. The plates were sealed and incubated at room temperature for 2 hours in a plate shaker set at 400 rpm. The incubation was stopped by vacuum filtration onto 0.5% poly-ethylene amine (PEI) presoaked GF/C filters using a 96-well FilterMate™ harvester (Perkin Elmer) followed by four washes with 300 μl/well ice-cold wash buffer (50 mM HEPES, 500 mM NaCl, pH7.4). Filter plates were then dried for 60 min at room temperature and the bottom of the plates was sealed with backing tape UniFilter-96. Finally, 50 μl/well scintillation counter cocktail (Microscint20, Packard) was added, and the radioactivity was counted in the Packard TopCount NXT scintillation counter. IC₅₀ values (the half maximal inhibitory concentration of the agonist) were calculated by nonlinear regression analysis of sigmoidal dose-response curves.

Row | Binder | Ki [nM]
1 | Isovaleryl-APEKPEEDASPEEIQQYYVSLRHYYNWLTRQRY-NH2 (not fully specified (residue 4); printed as iVal-APEK(C18DA-gGlu-OEG-OEG)PEEDASPEEIQQYYVSLRHYYNWLTRQRY-NH2) [Reference 1] | 0.74
2 | Isovaleryl-APEK([AEEA-AEEA-γGlu-C18 diacid])PEEDATPEELQKYYVSLRHYYNWLTRQRY-NH2 [Compound H] | 1.96
3 | Isovaleryl-APEK([AEEA-AEEA-γGlu-C18 diacid])PEADASPEEIQRYYVSLRHYYNWLTRQRY-NH2 [Compound J] | 0.24
4 | Isovaleryl-APEK([Ahx-γGlu-C18 diacid])PEADATPEEIQRYYVSLRHYYNWLTRQRY-NH2 [Compound K] | 1.04
5 | APEKPGEDASPEELQRYYVSLRHYYHWLTRQRY (not fully specified; N-terminal iVal (3-methylbutanoyl); the Lys (4th residue) carries C18DA-gGlu-OEG-OEG; C-terminal amide (-NH2)) [Reference 2] | 0.4
6 | Isovaleryl-RPEKPEEDASPEELQRYYVSLRHYYNWLTRQRY-NH2 (not fully specified (residue 4); printed as iVal-RPEK(C18DA-gGlu-OEG-OEG)PEEDASPEELQRYYVSLRHYYNWLTRQRY-NH2) [Reference 3] | 0.46
7 | Isovaleryl-APAK([AEEA-AEEA-γGlu-C18 diacid])PEEDATPEELQRYYVSLRHYYNWLTRQRY-NH2 [Compound A] | 0.66
8 | Isovaleryl-APAK([AEEA-AEEA-γGlu-C18 diacid])PEEEASPEELQRYYVSLRHYYNWLTRQRY-NH2 (SMILES CC(C)CC(=O)N[C@@H](C)C(=O)N1CCC[C@H]1C(=O)N[C@@H](C)C(=O)N[C@@H](CCCCNC(=O)COCCOCCNC(=O)COCCOCCNC(=O)CC[C@H](NC(=O)CCCCCCCCCCCCCCCCC(=O)O)C(=O)O)C(=O)N1CCC[C@H]1C(=O)N[C@@H](CCC(=O)O)C(=O)N[C@@H](CCC(=O)O)C(=O)N[C@@H](CCC(=O)O)C(=O)N[C@@H](C)C(=O)N[C@@H](CO)C(=O)N1CCC[C@H]1C(=O)N[C@@H](CCC(=O)O)C(=O)N[C@@H](CCC(=O)O)C(=O)N[C@@H](CC(C)C)C(=O)N[C@@H](CCC(N)=O)C(=O)N[C@@H](CCCNC(=N)N)C(=O)N[C@@H](Cc1ccc(O)cc1)C(=O)N[C@@H](Cc1ccc(O)cc1)C(=O)N[C@H](C(=O)N[C@@H](CO)C(=O)N[C@@H](CC(C)C)C(=O)N[C@@H](CCCNC(=N)N)C(=O)N[C@@H](Cc1c[nH]cn1)C(=O)N[C@@H](Cc1ccc(O)cc1)C(=O)N[C@@H](Cc1ccc(O)cc1)C(=O)N[C@@H](CC(N)=O)C(=O)N[C@@H](Cc1c[nH]c2ccccc12)C(=O)N[C@@H](CC(C)C)C(=O)N[C@H](C(=O)N[C@@H](CCCNC(=N)N)C(=O)N[C@@H](CCC(N)=O)C(=O)N[C@@H](CCCNC(=N)N)C(=O)N[C@@H](Cc1ccc(O)cc1)C(N)=O)[C@@H](C)O)C(C)C) [Compound C] | 1.95
9 | Isovaleryl-APAK([AEEA-AEEA-γGlu-C18 diacid])PEEDASPEEIQRYYVSLRHYYNWLTRQRY-NH2 [Compound E] | 0.55
10 | Isovaleryl-APEK([AEEA-AEEA-γGlu-C18 diacid])PEADATPEELQRYYVSLRHYYNWLTRQRY-NH2 (SMILES CC(C)CC(=O)N[C@@H](C)C(=O)N1CCC[C@H]1C(=O)N[C@@H](CCC(=O)O)C(=O)N[C@@H](CCCCNC(=O)COCCOCCNC(=O)COCCOCCNC(=O)CC[C@H](NC(=O)CCCCCCCCCCCCCCCCC(=O)O)C(=O)O)C(=O)N1CCC[C@H]1C(=O)N[C@@H](CCC(=O)O)C(=O)N[C@@H](C)C(=O)N[C@@H](CC(=O)O)C(=O)N[C@@H](C)C(=O)N[C@H](C(=O)N1CCC[C@H]1C(=O)N[C@@H](CCC(=O)O)C(=O)N[C@@H](CCC(=O)O)C(=O)N[C@@H](CC(C)C)C(=O)N[C@@H](CCC(N)=O)C(=O)N[C@@H](CCCNC(=N)N)C(=O)N[C@@H](Cc1ccc(O)cc1)C(=O)N[C@@H](Cc1ccc(O)cc1)C(=O)N[C@H](C(=O)N[C@@H](CO)C(=O)N[C@@H](CC(C)C)C(=O)N[C@@H](CCCNC(=N)N)C(=O)N[C@@H](Cc1c[nH]cn1)C(=O)N[C@@H](Cc1ccc(O)cc1)C(=O)N[C@@H](Cc1ccc(O)cc1)C(=O)N[C@@H](CC(N)=O)C(=O)N[C@@H](Cc1c[nH]c2ccccc12)C(=O)N[C@@H](CC(C)C)C(=O)N[C@H](C(=O)N[C@@H](CCCNC(=N)N)C(=O)N[C@@H](CCC(N)=O)C(=O)N[C@@H](CCCNC(=N)N)C(=O)N[C@@H](Cc1ccc(O)cc1)C(N)=O)[C@@H](C)O)C(C)C)[C@@H](C)O) [Compound F] | 0.31
